According to US20150203577A1 (Chugai, published 2015):

What was measured:
[1] = molecular target: T1, mouse FcγRII (mouse, UniProt P08101 30-210); assay: SPR (Biacore), antibody captured on Protein L
T1 construct: Extracellular domain with C-terminal His tag, made in FreeStyle 293 cells; also called mFcγRII; mFcgRII
T1 sequence: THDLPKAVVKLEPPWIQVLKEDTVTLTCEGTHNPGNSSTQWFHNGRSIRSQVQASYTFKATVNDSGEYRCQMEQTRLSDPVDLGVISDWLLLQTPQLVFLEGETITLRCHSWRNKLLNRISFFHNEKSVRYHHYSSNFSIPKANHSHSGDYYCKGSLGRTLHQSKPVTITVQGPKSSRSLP

[2] = molecular target: T2, mouse FcγRIII (mouse, UniProt P08508 31-215); assay: SPR (Biacore), antibody captured on Protein L
T2 construct: Extracellular domain with C-terminal His tag, made in FreeStyle 293 cells; also called mFcγRIII; mFcgRIII
T2 chain: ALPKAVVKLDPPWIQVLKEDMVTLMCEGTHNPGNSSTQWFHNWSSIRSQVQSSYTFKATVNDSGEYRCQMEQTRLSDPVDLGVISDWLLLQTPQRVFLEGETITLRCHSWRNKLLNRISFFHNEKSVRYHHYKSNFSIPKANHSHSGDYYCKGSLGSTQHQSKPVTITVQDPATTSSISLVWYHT

[3] = molecular target: T1, mouse FcγRII; assay: SPR (Biacore), KD of H237-mIgG1/MRAL-k0 (same run) / KD of variant
Description: (§1) Each altered antibody was analyzed for its interaction with each Fcγ receptor prepared above using Biacore T100 (GE Healthcare Japan Corp.), Biacore T200 (GE Healthcare Japan Corp.), Biacore A100, or Biacore 4000. The running buffer used was HBS-EP+ (GE Healthcare Japan Corp.). The assay temperature was set to 25° C. The sensor chips used were chips prepared by immobilizing Protein L (ACTIGEN or BioVision) onto Series S Sensor Chip CM5 (GE Healthcare Japan Corp.) or Series S Sensor Chip CM4 (GE Healthcare Japan Corp.) by the amine coupling method.
(§2) In order to calculate the KD value of each altered antibody for FcγR, kinetic analysis was conducted according to the following method: first, the antibody of interest was captured onto any of these chips and allowed to interact with mFcγR diluted with a running buffer. For the obtained sensorgram, the assay results were globally fit into the 1:1 Langmuir binding model using Biacore Evaluation Software to calculate an association rate constant ka (L/mol/s) and a dissociation rate constant kd (1/s). From these values, the dissociation constant KD (mol/L) was calculated.

[4] = molecular target: T2, mouse FcγRIII; assay: as above
Description: as §1, §2

| Binder | Kd [1] [nM] | Kd [2] [µM] | relative mFcγRII-binding activity (mIgG1 = 1) [3] [fold] | relative mFcγRIII-binding activity (mIgG1 = 1) [4] [fold] |
| --- | --- | --- | --- | --- |
| H237-MB642/MRAL-k0 (antibody, mouse IgG1, kappa, copies: 2 + 2) heavy: QVQLQESGPGLVKPSETLSLTCAVSGHSISHDHAWSWVRQPPGEGLEWIGFISYSGITNYNPSLQGRVTISRDNSKNTLYLQMNSLRAEDTAVYYCARSLARTTAMDYWGEGTLVTVSSAKTTPPSVYPLAPGSAAQTNSMVTLGCLVKGYFPEPVTVTWNSGSLSSGVHTFPAVLQSDLYTLSSSVTVPSSTWPSETVTCNVAHPASSTKVDKKIVPRDCGCKPCICEDYEVEYVFIFPPKPKDVLTITLTPKVTCVVVDISKDDPEVQFSWFVDDVEVHTAQTQPREEQFNSTFRSVSELPIMHQDWLNGKEFKCRVNSAAFPAPIEKTISKTKGRPKAPQVYTIPPPKEQMAKDKVSLTCMITDFFPEDITVEWQWNGQPAENYKNTQPIMDTDGSYFVYSKLNVQKSNWEAGNTFTCSVLHEGLHNHHTEKSLSHSPGK light: not shown | 197 | 5.11 | 1.65 | 0.1 |
| H237-MB690/MRAL-k0 (antibody, mouse IgG1, kappa, copies: 2 + 2) heavy: QVQLQESGPGLVKPSETLSLTCAVSGHSISHDHAWSWVRQPPGEGLEWIGFISYSGITNYNPSLQGRVTISRDNSKNTLYLQMNSLRAEDTAVYYCARSLARTTAMDYWGEGTLVTVSSAKTTPPSVYPLAPGSAAQTNSMVTLGCLVKGYFPEPVTVTWNSGSLSSGVHTFPAVLQSDLYTLSSSVTVPSSTWPSETVTCNVAHPASSTKVDKKIVPRDCGCKPCICTPAEVEYVFIFPPKPKDVLTITLTPKVTCVVVDISKDDPEVQFSWFVDDVEVHTAQTQPREEQFNSTFRSVSELPIMHQDWLNGKEFKCRVNSAAFPAPIEKTISKTKGRPKAPQVYTIPPPKEQMAKDKVSLTCMITDFFPEDITVEWQWNGQPAENYKNTQPIMDTDGSYFVYSKLNVQKSNWEAGNTFTCSVLHEGLHNHHTEKSLSHSPGK light: not shown | 204 | 2.71 | 1.6 | 0.19 |
| H237-MB647/MRAL-k0 (antibody, 'T2301' read as T230I; copies: 2 + 2) heavy: QVQLQESGPGLVKPSETLSLTCAVSGHSISHDHAWSWVRQPPGEGLEWIGFISYSGITNYNPSLQGRVTISRDNSKNTLYLQMNSLRAEDTAVYYCARSLARTTAMDYWGEGTLVTVSSAKTTPPSVYPLAPGSAAQTNSMVTLGCLVKGYFPEPVTVTWNSGSLSSGVHTFPAVLQSDLYTLSSSVTVPSSTWPSETVTCNVAHPASSTKVDKKIVPRDCGCKPCICIPAEVEYVFIFPPKPKDVLTITLTPKVTCVVVDISKDDPEVQFSWFVDDVEVHTAQTQPREEQFNSTFRSVSELPIMHQDWLNGKEFKCRVNSAAFPAPIEKTISKTKGRPKAPQVYTIPPPKEQMAKDKVSLTCMITDFFPEDITVEWQWNGQPAENYKNTQPIMDTDGSYFVYSKLNVQKSNWEAGNTFTCSVLHEGLHNHHTEKSLSHSPGK light: not shown | 200 | 2.8 | 1.16 | 0.12 |
| H237-MB658/MRAL-k0 (antibody, mouse IgG1, kappa, copies: 2 + 2) heavy: QVQLQESGPGLVKPSETLSLTCAVSGHSISHDHAWSWVRQPPGEGLEWIGFISYSGITNYNPSLQGRVTISRDNSKNTLYLQMNSLRAEDTAVYYCARSLARTTAMDYWGEGTLVTVSSAKTTPPSVYPLAPGSAAQTNSMVTLGCLVKGYFPEPVTVTWNSGSLSSGVHTFPAVLQSDLYTLSSSVTVPSSTWPSETVTCNVAHPASSTKVDKKIVPRDCGCKPCICQPNEVEFVFIFPPKPKDVLTITLTPKVTCVVVDISKDDPEVQFSWFVDDVEVHTAQTQPREEQFNSTFRSVSELPIMHQDWLNGKEFKCRVNSAAFPAPIEKTISKTKGRPKAPQVYTIPPPKEQMAKDKVSLTCMITDFFPEDITVEWQWNGQPAENYKNTQPIMDTDGSYFVYSKLNVQKSNWEAGNTFTCSVLHEGLHNHHTEKSLSHSPGK light: not shown | 415 | 4.88 | 0.56 | 0.07 |
| H237-MB643/MRAL-k0 (antibody, mouse IgG1, kappa, copies: 2 + 2) heavy: QVQLQESGPGLVKPSETLSLTCAVSGHSISHDHAWSWVRQPPGEGLEWIGFISYSGITNYNPSLQGRVTISRDNSKNTLYLQMNSLRAEDTAVYYCARSLARTTAMDYWGEGTLVTVSSAKTTPPSVYPLAPGSAAQTNSMVTLGCLVKGYFPEPVTVTWNSGSLSSGVHTFPAVLQSDLYTLSSSVTVPSSTWPSETVTCNVAHPASSTKVDKKIVPRDCGCKPCICENYEVEYVFIFPPKPKDVLTITLTPKVTCVVVDISKDDPEVQFSWFVDDVEVHTAQTQPREEQFNSTFRSVSELPIMHQDWLNGKEFKCRVNSAAFPAPIEKTISKTKGRPKAPQVYTIPPPKEQMAKDKVSLTCMITDFFPEDITVEWQWNGQPAENYKNTQPIMDTDGSYFVYSKLNVQKSNWEAGNTFTCSVLHEGLHNHHTEKSLSHSPGK light: not shown | 126 | 2 | 1.83 | 0.16 |
| H237-MB685/MRAL-k0 (antibody, mouse IgG1, kappa, copies: 2 + 2) heavy: QVQLQESGPGLVKPSETLSLTCAVSGHSISHDHAWSWVRQPPGEGLEWIGFISYSGITNYNPSLQGRVTISRDNSKNTLYLQMNSLRAEDTAVYYCARSLARTTAMDYWGEGTLVTVSSAKTTPPSVYPLAPGSAAQTNSMVTLGCLVKGYFPEPVTVTWNSGSLSSGVHTFPAVLQSDLYTLSSSVTVPSSTWPSETVTCNVAHPASSTKVDKKIVPRDCGCKPCICTPAEVELVFIFPPKPKDVLTITLTPKVTCVVVDISKDDPEVQFSWFVDDVEVHTAQTQPREEQFNSTFRSVSELPIMHQDWLNGKEFKCRVNSAAFPAPIEKTISKTKGRPKAPQVYTIPPPKEQMAKDKVSLTCMITDFFPEDITVEWQWNGQPAENYKNTQPIMDTDGSYFVYSKLNVQKSNWEAGNTFTCSVLHEGLHNHHTEKSLSHSPGK light: not shown | 537 | 5.49 | 0.61 | 0.09 |
| H237-MB692/MRAL-k0 (antibody, mouse IgG1, kappa, copies: 2 + 2) heavy: QVQLQESGPGLVKPSETLSLTCAVSGHSISHDHAWSWVRQPPGEGLEWIGFISYSGITNYNPSLQGRVTISRDNSKNTLYLQMNSLRAEDTAVYYCARSLARTTAMDYWGEGTLVTVSSAKTTPPSVYPLAPGSAAQTNSMVTLGCLVKGYFPEPVTVTWNSGSLSSGVHTFPAVLQSDLYTLSSSVTVPSSTWPSETVTCNVAHPASSTKVDKKIVPRDCGCKPCICEPPEVEYVFIFPPKPKDVLTITLTPKVTCVVVDISKDDPEVQFSWFVDDVEVHTAQTQPREEQFNSTFRSVSELPIMHQDWLNGKEFKCRVNSAAFPAPIEKTISKTKGRPKAPQVYTIPPPKEQMAKDKVSLTCMITDFFPEDITVEWQWNGQPAENYKNTQPIMDTDGSYFVYSKLNVQKSNWEAGNTFTCSVLHEGLHNHHTEKSLSHSPGK light: not shown | 186 | 4.44 | 1.75 | 0.12 |
| H237-MB691/MRAL-k0 (antibody, mouse IgG1, kappa, copies: 2 + 2) heavy: QVQLQESGPGLVKPSETLSLTCAVSGHSISHDHAWSWVRQPPGEGLEWIGFISYSGITNYNPSLQGRVTISRDNSKNTLYLQMNSLRAEDTAVYYCARSLARTTAMDYWGEGTLVTVSSAKTTPPSVYPLAPGSAAQTNSMVTLGCLVKGYFPEPVTVTWNSGSLSSGVHTFPAVLQSDLYTLSSSVTVPSSTWPSETVTCNVAHPASSTKVDKKIVPRDCGCKPCICEVAEVEYVFIFPPKPKDVLTITLTPKVTCVVVDISKDDPEVQFSWFVDDVEVHTAQTQPREEQFNSTFRSVSELPIMHQDWLNGKEFKCRVNSAAFPAPIEKTISKTKGRPKAPQVYTIPPPKEQMAKDKVSLTCMITDFFPEDITVEWQWNGQPAENYKNTQPIMDTDGSYFVYSKLNVQKSNWEAGNTFTCSVLHEGLHNHHTEKSLSHSPGK light: not shown | 559 | 7.18 | 0.58 | 0.07 |
| H237-MB688/MRAL-k0 (antibody, mouse IgG1, kappa, copies: 2 + 2) heavy: QVQLQESGPGLVKPSETLSLTCAVSGHSISHDHAWSWVRQPPGEGLEWIGFISYSGITNYNPSLQGRVTISRDNSKNTLYLQMNSLRAEDTAVYYCARSLARTTAMDYWGEGTLVTVSSAKTTPPSVYPLAPGSAAQTNSMVTLGCLVKGYFPEPVTVTWNSGSLSSGVHTFPAVLQSDLYTLSSSVTVPSSTWPSETVTCNVAHPASSTKVDKKIVPRDCGCKPCICTVYEVENVFIFPPKPKDVLTITLTPKVTCVVVDISKDDPEVQFSWFVDDVEVHTAQTQPREEQFNSTFRSVSELPIMHQDWLNGKEFKCRVNSAAFPAPIEKTISKTKGRPKAPQVYTIPPPKEQMAKDKVSLTCMITDFFPEDITVEWQWNGQPAENYKNTQPIMDTDGSYFVYSKLNVQKSNWEAGNTFTCSVLHEGLHNHHTEKSLSHSPGK light: not shown | 513 | 6.3 | 0.63 | 0.08 |
